T1: RMB1 MBD T49A (Arabidopsis thaliana, UniProt F4I209 1-81, T49A)
T1 sequence: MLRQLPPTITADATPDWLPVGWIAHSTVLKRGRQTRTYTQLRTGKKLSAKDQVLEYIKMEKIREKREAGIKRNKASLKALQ

T2: RMB1 MBD (Arabidopsis thaliana, UniProt F4I209 1-81)
T2 sequence: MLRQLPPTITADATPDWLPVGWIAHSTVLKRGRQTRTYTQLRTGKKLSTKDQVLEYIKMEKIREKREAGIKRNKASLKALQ

T3: RMB1 MBD K50T (Arabidopsis thaliana, UniProt F4I209 1-81, K50T)
T3 sequence: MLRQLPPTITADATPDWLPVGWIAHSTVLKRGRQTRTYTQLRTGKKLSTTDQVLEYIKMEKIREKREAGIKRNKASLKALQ

T4: RMB1 MBD W22G (Arabidopsis thaliana, UniProt F4I209 1-81, W22G)
T4 sequence: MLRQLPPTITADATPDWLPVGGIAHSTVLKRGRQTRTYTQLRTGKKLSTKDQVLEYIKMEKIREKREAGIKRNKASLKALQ

T5: RMB1 MBD Y38F (Arabidopsis thaliana, UniProt F4I209 1-81, Y38F)
T5 sequence: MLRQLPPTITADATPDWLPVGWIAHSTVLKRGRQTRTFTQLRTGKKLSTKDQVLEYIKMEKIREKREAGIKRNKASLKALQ


Tests used:
Test in all cases: MST
RMB1 MBD T49A = target: T1, RMB1 MBD T49A
RMB1 MBD = target: T2, RMB1 MBD
RMB1 MBD K50T = target: T3, RMB1 MBD K50T
RMB1 MBD W22G = target: T4, RMB1 MBD W22G
RMB1 MBD Y38F = target: T5, RMB1 MBD Y38F

Binder	Kd (RMB1 MBD T49A)	Kd (RMB1 MBD)	binding result (RMB1 MBD K50T)	Kd (RMB1 MBD W22G)	Kd (RMB1 MBD Y38F)
AT5G39160 mCG (dsDNA, 5mC at forward 8 and 48; reverse strand line not in material, its methylation unknown) DNA 1: TTTGGTACGGACTTTTAGTTACAAGAGAGCATTTAAACAAAAATGACCGGTAGATGGAA DNA 2: TTCCATCTACCGGTCATTTTTGTTTAAATGCTCTCTTGTAACTAAAAGTCCGTACCAAA	3.58 ± 2.07 µM	1770 ± 700 nM	no binding	13.3 ± 4.67 µM	2.15 ± 0.75 µM
AT5G39160 mCHH (dsDNA, 5mC at forward 12, 22, 30, 38; reverse unmethylated) DNA 1: TTTGGTACGGACTTTTAGTTACAAGAGAGCATTTAAACAAAAATGACCGGTAGATGGAA DNA 2: TTCCATCTACCGGTCATTTTTGTTTAAATGCTCTCTTGTAACTAAAAGTCCGTACCAAA	–	2860 ± 1210 nM	–	–	–
AT5G39160 mCHG (dsDNA, 5mC in CHG context; positions not in material (base sequence taken from Um probe)) DNA 1: TTTGGTACGGACTTTTAGTTACAAGAGAGCATTTAAACAAAAATGACCGGTAGATGGAA DNA 2: TTCCATCTACCGGTCATTTTTGTTTAAATGCTCTCTTGTAACTAAAAGTCCGTACCAAA	4.11 ± 2.92 µM	3340 ± 270 nM	no binding	–	5.16 ± 2 µM
